Test results: PMC4442680, “Crystal structure of human nicotinic acid phosphoribosyltransferase” (FEBS Open Bio, 2015)

Target: the molecule itself
Assay: crystal structure; ligand-free enzyme; sitting drops, 15 mg/mL protein preincubated with 1 mM Acetyl-CoA and 5 mM DTT, 0.1 M Sodium cacodylate pH 6.5, 1.7 M Sodium acetate, 4 °C; P212121, two molecules per asymmetric unit; 2.9 Å

B1: human nicotinic acid phosphoribosyltransferase (enzyme, UniProt Q6XQN6 1-538, looked up)
chain: MAAEQDPEARAAARPLLTDLYQATMALGYWRAGRARDAAEFELFFRRCPFGGAFALAAGLRDCVRFLRAFRLRDADVQFLASVLPPDTDPAFFEHLRALDCSEVTVRALPEGSLAFPGVPLLQVSGPLLVVQLLETPLLCLVSYASLVATNAARLRLIAGPEKRLLEMGLRRAQGPDGGLTASTYSYLGGFDSSSNVLAGQLRGVPVAGTLAHSFVTSFSGSEVPPDPMLAPAAGEGPGVDLAAKAQVWLEQVCAHLGLGVQEPHPGERAAFVAYALAFPRAFQGLLDTYSVWRSGLPNFLAVALALGELGYRAVGVRLDSGDLLQQAQEIRKVFRAAAAQFQVPWLESVLIVVSNNIDEEALARLAQEGSEVNVIGIGTSVVTCPQQPSLGGVYKLVAVGGQPRMKLTEDPEKQTLPGSKAAFRLLGSDGSPLMDMLQLAEEPVPQAGQELRVWPPGAQEPCTVRPAQVEPLLRLCLQQGQLCEPLPSLAESRALAQLSLSRLSPEHRRLRSPAQYQVVLSERLQALVNSLCAGQSP
notes: human nicotinic acid phosphoribosyltransferase (EC 2.4.2.11); also called human NaPRTase; hNaPRTase
- stoichiometry N: 2
